Test results from paper PMC6420652, “Developing a novel FRET assay, targeting the binding between Antizyme-AZIN” (Scientific Reports, 2019).
Numbering of substitutions follows the chain as printed.

Tests used:
Test in all cases: FRET or BRET; Clover fusion protein constant at 50 nM, mRuby2 fusion of antizyme titrated; TBS pH 7.4 + 0.15% Tween-20, 1 hour at room temperature; plate reader, fit of donor quenching
Conditions in all cases: both partners purified
[1] = target: T1, ODC-N327A (Clover fusion protein) (human, UniProt P11926 1-461, N327A)
T1 construct: human ornithine decarboxylase (hODC1) with N327A; As m5 with the point mutation; source: bacterial expression vector (pBAD), purified recombinant protein
T1 sequence (looked up): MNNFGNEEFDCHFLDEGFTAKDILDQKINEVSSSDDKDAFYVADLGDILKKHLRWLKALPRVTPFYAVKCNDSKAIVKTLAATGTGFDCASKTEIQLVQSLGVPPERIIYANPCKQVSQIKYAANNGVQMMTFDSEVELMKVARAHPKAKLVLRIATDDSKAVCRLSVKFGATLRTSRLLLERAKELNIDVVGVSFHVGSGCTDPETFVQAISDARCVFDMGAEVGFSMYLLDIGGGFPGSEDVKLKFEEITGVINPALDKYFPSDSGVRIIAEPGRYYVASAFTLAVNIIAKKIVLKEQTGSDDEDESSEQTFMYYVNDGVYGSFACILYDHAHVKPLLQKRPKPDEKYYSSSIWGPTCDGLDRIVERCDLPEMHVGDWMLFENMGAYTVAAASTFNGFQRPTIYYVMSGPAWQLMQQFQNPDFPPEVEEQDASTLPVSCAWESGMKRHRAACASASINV

[2] = target: T2, ODC-Clover fusion protein (ornithine decarboxylase), wild type (human, UniProt P11926 1-461)
T2 construct: human ornithine decarboxylase (hODC1); The legend says 'ODC-Clover fusion proteins'; the methods speak of N-terminal fluorescent fusion proteins of hODC1, so Clover is probably N-terminal; also called hODC1; source: bacterial expression vector (pBAD), purified recombinant protein
T2 sequence (looked up): T1 sequence (looked up) with A327N

[3] = target: T3, ODC-Y331S (Clover fusion protein) (human, UniProt P11926 1-461, Y331S)
T3 construct: human ornithine decarboxylase (hODC1) with Y331S; As m5 with the point mutation; source: bacterial expression vector (pBAD), purified recombinant protein
T3 sequence (looked up): T1 sequence (looked up) with A327N, Y331S

[4] = target: T4, Clover-AZIN (antizyme inhibitor with an N-terminal Clover tag) (human, UniProt O14977 1-448)
T4 construct: The vector has a TEV protease site after the His tag; also called hAZIN1; source: bacterial expression vector (pBAD), purified recombinant protein; not shown: Clover, N-terminal, kept
T4 sequence (looked up): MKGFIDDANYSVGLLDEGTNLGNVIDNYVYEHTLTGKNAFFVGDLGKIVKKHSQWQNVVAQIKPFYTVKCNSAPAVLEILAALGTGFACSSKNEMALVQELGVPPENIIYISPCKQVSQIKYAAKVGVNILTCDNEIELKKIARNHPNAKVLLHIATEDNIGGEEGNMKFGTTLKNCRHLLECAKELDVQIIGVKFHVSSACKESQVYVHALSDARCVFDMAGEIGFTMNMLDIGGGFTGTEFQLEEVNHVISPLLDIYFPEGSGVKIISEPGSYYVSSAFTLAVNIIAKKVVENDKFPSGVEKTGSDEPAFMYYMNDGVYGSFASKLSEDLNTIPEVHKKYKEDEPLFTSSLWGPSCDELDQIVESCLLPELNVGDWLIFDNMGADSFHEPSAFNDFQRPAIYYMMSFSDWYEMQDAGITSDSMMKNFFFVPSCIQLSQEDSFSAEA

- Kd [1]: 192 nM
- Kd [2]: 508 nM
- Kd [3]: 277 nM
- Kd [4]: 22 nM
B1: antizyme-mRuby2 (antizyme with a C-terminal mRuby2 tag) (natural protein)
chain: not shown
notes: human antizyme 1 (OAZ1), codon-optimized synthetic gene; An HRV 3C protease site lies between antizyme and mRuby2 (used for the cleavage control); also called AZ-mRuby2; AZ; source: bacterial expression vector (pBAD), gene codon optimized for E. coli, purified recombinant protein; not shown: mRuby2, C-terminal, kept
